The target in this experiment is Mouse CTLA4-Fc protein (mouse). Briefly: ELISA, control VHH coated 0.5 µg/well, mouse CTLA4-Fc (biotinylated), SA-HRP; blank 0.027. In general terms: An ELISA detects its analyte on a solid surface through an enzyme-linked reagent.
Sequence of Mouse CTLA4-Fc protein (mouse) (chain, as listed by the source limits assumed): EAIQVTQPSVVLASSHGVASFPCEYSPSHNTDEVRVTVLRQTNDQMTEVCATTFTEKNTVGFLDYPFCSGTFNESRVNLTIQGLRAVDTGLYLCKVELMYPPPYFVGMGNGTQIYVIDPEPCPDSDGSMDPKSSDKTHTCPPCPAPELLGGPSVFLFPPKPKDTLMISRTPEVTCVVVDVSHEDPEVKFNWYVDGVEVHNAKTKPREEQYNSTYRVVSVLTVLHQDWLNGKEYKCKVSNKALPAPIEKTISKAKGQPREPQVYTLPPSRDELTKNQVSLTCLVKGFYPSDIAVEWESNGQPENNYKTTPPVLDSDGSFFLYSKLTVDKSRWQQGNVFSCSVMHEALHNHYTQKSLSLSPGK

Substance “single domain antibody against other unrelated target (control) (VHH)” registered an OD (against mouse CTLA4) of 0.026 OD405.
